Results on 7 molecules are retold here after paper PMC8233511.

Like-named read-outs stand apart in the source and are kept apart here.

Experiment in all cases: EMSA
(In general: In EMSA bound probe runs differently from free probe, usually more slowly.)

Series [1] concerns the target Oct4 POU domain;Sox2 HMG domain (mouse?;mouse?, UniProt P20263;P48432 131-282;43-111, |).
The target of series [2] is Oct4 POU domain;Sox17 HMG domain (mouse?;mouse?, UniProt P20263;Q61473 131-282;68-136, |).
Series [3] addresses Oct4 POU domain (UniProt P20263 131-282).
For series [4], the target named is T1, Oct4 POU domain homodimer (UniProt P20263 131-282).
T1 sequence (P20263 131-282): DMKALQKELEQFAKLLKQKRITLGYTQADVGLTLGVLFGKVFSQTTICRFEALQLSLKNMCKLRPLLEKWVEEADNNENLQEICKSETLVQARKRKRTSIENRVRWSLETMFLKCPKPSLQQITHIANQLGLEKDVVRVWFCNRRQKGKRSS
The target in series [5] is T1, Oct4 POU domain homodimer. This is another data set of the same source.

Oct4 POU domain;Sox17 HMG domain, sequence (P20263 131-282, chain 1 of 2): as the sequence (P20263 131-282) above
Oct4 POU domain;Sox17 HMG domain, sequence (Q61473 68-136, chain 2 of 2): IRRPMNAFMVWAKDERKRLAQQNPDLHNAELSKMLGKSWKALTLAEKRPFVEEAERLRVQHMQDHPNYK
Oct4 POU domain;Sox2 HMG domain, sequence (P20263 131-282, chain 1 of 2): as the sequence (P20263 131-282) above
Oct4 POU domain;Sox2 HMG domain, sequence (P48432 43-111, chain 2 of 2): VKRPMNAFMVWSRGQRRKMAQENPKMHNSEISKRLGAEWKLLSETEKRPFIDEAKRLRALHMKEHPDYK
Oct4 POU domain, sequence (P20263 131-282): as the sequence (P20263 131-282) above

B1: SoxOct canonical (dsDNA)
DNA 1: GCGGCATTGTCATGCAAATCGGCGG
DNA 2: CCGCCGATTTGCATGACAATGCCGC
B1: the binding result in series [1] is listed as “binds”.

B2: SoxOct compressed (dsDNA)
DNA 1: GGCGGCATTGTATGCAAATCGGCGG
DNA 2: CCGCCGATTTGCATACAATGCCGCC
As to B2, the binding result in series [2] was “binds”.

B3: Octamer (dsDNA)
DNA 1: GGCGGCGGATGCAAATCGGCGGCGG
DNA 2: CCGCCGCCGATTTGCATCCGCCGCC
Regarding B3, the binding result in series [3] is “binds”.

B4: MOREA4 (dsDNA)
DNA 1: GCCGCCATGAATATTCATGCCGCCGC
DNA 2: GCGGCGGCATGAATATTCATGGCGGC
With B4, the binding result in series [4] is given as “binds”.

B5: PORE (dsDNA)
DNA 1: GGATCCATTTGCCTTTCAAATGTGG
DNA 2: CCACATTTGAAAGGCAAATGGATCC
Turning to B5, the binding result in series [5] was “binds”.

B6: MOREA4+1 (dsDNA)
DNA 1: GCCGCCATGAATAATTCATGCCGCCG
DNA 2: CGGCGGCATGAATTATTCATGGCGGC
On to B6, for which the binding result in series [4] is reported as “binds”.

B7: MOREC4 (dsDNA)
DNA 1: GGCCTCATGCATATGCATGCGGCGG
DNA 2: CCGCCGCATGCATATGCATGAGGCC
On to B7, for which the binding result in series [4] was “binds”.
